Key:
[1] = biological target: Glutaconate CoA-transferase from A. fermentans (Acidaminococcus fermentans, UniProt Q59111+Q59112); conditions: Buckel et al. 1981; cited from earlier work
[2] = substrate: CC(C)(COP(=O)(O)OP(=O)(O)OC[C@H]1O[C@@H](n2cnc3c(N)ncnc32)[C@H](O)[C@@H]1OP(=O)(O)O)[C@@H](O)C(=O)NCCC(=O)NCCSC(=O)[C@H](O)CCC(=O)O; experiment: Substrate kinetics of 2-hydroxyglutaryl-CoA dehydratase with activator; format: biochemical, Clostridium symbiosum; conditions: other: substrate of the dehydratase; pH 7.0
Protocol: (§1) 2-Hydroxyglutaryl-CoA dehydratase activity was measured under anoxic conditions at ambient temperature in cuvettes of 0.5 ml total volume containing 50 mM Mops/KOH pH 7.0, 10 mM dithiothreitol, 5 mM MgCl2, 0.1 mM dithionite, 0.4 mM ATP, and […] with activator. After 10 minutes of incubation the reaction was started with 2 mM acetyl-CoA and 2 mM (R)-2-hydroxyglutarate. The increase of absorbance due to the formation of glutaconyl-CoA was followed at 290 nm (ε=2.2 mM^−1 cm^−1) (Kim J, Darley D J, Buckel W, Pierik A J (2008) An allylic ketyl radical intermediate in clostridial amino-acid fermentation. Nature 452:239-242).
(§2) a) 2-Hydroxyglutaryl-CoA dehydratase from Clostridium symbiosum and activator from Acidaminococcus fermentans

[3] = substrate: CC(C)(COP(=O)(O)OP(=O)(O)OC[C@H]1O[C@@H](n2cnc3c(N)ncnc32)[C@H](O)[C@@H]1OP(=O)(O)O)[C@@H](O)C(=O)NCCC(=O)NCCSC(=O)C(O)CCCC(=O)O; experiment: as above; format: biochemical, Clostridium symbiosum; conditions: other: substrate of the dehydratase; pH 7.0
Protocol: as §1, §2

[4] = substrate: CC(C)(COP(=O)(O)OP(=O)(O)OC[C@H]1O[C@@H](n2cnc3c(N)ncnc32)[C@H](O)[C@@H]1OP(=O)(O)O)[C@@H](O)C(=O)NCCC(=O)NCCSC(=O)/C=C/C=C/C(=O)O; experiment: as above; format: biochemical, Clostridium symbiosum; conditions: other: substrate of the dehydratase; pH 7.0
Protocol: as §1, §2

[5] = 2-Hydroxyglutaryl-CoA dehydratase activity in recombinant E. coli BL21; format: biochemical, C. symbiosum; conditions: recombinant E. coli BL21, with activator
Protocol: as §1
(§3) The genes were transformed into modified E. coli BL21-CodonPlus (DE3). An overnight anaerobic preculture (100 ml) of a fresh single colony was used to inoculate 1 liter Standard I medium, described above, containing antibiotics (carbenicillin, 100 μg·ml^−1; chloramphenicol, 50 μg·ml^−1) and grown at the same conditions. When the culture reached OD578=0.2, gene expression was induced with isopropyl-1-thio-β-D-galactoside, IPTG (240 mg·liter^−1) and anhydrotetracycline, AHT (200 μg·liter^−1). […]
(§4) In Table 9 the enzymatic activities are shown, which were measured in the recombinant E. coli strain.

[6] = 2-Hydroxyglutarate dehydrogenase activity in recombinant E. coli BL21; format: biochemical, A. fermentans
Protocol: 2-Hydroxyglutarate dehydrogenase activity was measured at ambient temperature in cuvettes of 0.5 ml total volume containing 0.1 M Tris/HCl pH 8.0, 0.2 mM NADH and 2-hydroxyglutarate dehydrogenase at room temperature. After addition of 1 mM α-ketoglutarate, the absorbance decrease of NADH was monitored at 340 nm (ε=6.3 mM^−1 cm^−1) (Bresser J (1997) (R)-2-Hydroxyglutarat-Dehydrogenase aus Acidaminococcus fermentans. PhD Thesis, Philipps-Universitä t Marburg, Germany; Martins B M, Macedo-Ribeiro S, Bresser J, Buckel W, Messerschmidt A (2005) Structural basis for stereo-specific catalysis in NAD^+-dependent (R)-2-hydroxyglutarate dehydrogenase from Acidaminococcus fermentans. Febs J 272:269-281).
as §3, §4

[7] = Glutaconate CoA-transferase activity in recombinant E. coli BL21; format: biochemical, A. fermentans
Protocol: Glutaconate CoA-transferase activity assay was performed aerobically at room temperature. The increase of absorbance was followed at 412 nm, Δε=14 mM^−1 cm^−1.
The genes were transformed into modified E. coli BL21-CodonPlus (DE3). An overnight anaerobic preculture (100 ml) of a fresh single colony was used to inoculate 1 liter Standard I medium, described above, containing antibiotics (carbenicillin, 100 μg·ml^−1; chloramphenicol, 50 μg·ml^−1) and grown at the same conditions. When the culture reached OD578=0.2, gene expression was induced with isopropyl-1-thio-β-D-galactoside, IPTG (240 mg·liter^−1) and anhydrotetracycline, AHT (200 μg·liter^−1). Cells were harvested 3 hours after induction (at OD578=0.573), washed and suspended in 20 ml of buffer (50 mM MOPS, 5 mM MgCl2 and 2 mM DTT) under anoxic conditions. The induced E. coli cells were lysed by French press and cell debris was removed by ultracentrifugation at 100 000 g at 4° C. for 1 hour.
as §4

For `O=C(O)CC[C@@H](O)C(=O)O` [(R)-2-hydroxyglutarate], the “Substrate of the enzyme” value [1] is listed as “acts on”.

In the case of `CC(=O)O` [acetate], the “Substrate of the enzyme” value [1] is listed as “acts on”.

For `O=C(O)/C=C/CC(=O)O` [(E)-glutaconate], the “Substrate of the enzyme” value [1] is given as “acts on”.

In the case of `O=C(O)CCCCC(=O)O` [adipate], the “Substrate of the enzyme” value [1] is given as “acts on”.

In the case of `C=CC(=O)O` [acrylate], the “Substrate of the enzyme” value [1] is given as “acts on”.

In the case of `CCC(=O)O` [propionate], the “Substrate of the enzyme” value [1] is given as “acts on”.

B1: 2-Hydroxyglutaryl-CoA dehydratase from Clostridium symbiosum and activator from Acidaminococcus fermentans ([Clostridium] symbiosum) (protein)
chain 1: MAKQVSPGVLALRKVVDDVHKEAREAKARGELVGWSSSKFPCELAAAFDLNVMYPENQAAGIAANRYGEMMCQAAEDLGYDNDICGYARISLAYAAGVRVSRKYDAETGEYIIDPATGKPLKDAEGNVVIDEATGKPKKDPKTQTPYLVLDNLLEIEALPDGPEKERRLEAISPIRQMRIPQPDFVLCCNNICNCMTKWYENIARMCNVPLIMIDIPYNNTVEVHDDNVKYVRAQFDKAIKQLEELTGKKFDEKKFEKACSNANRTAQAWLKVCDYLQYKPAPYSGFDLFNHMADVVTARARVEAAEAFELLADDLEETVKKGETTTPFPEKYRVMFEGIPCWPKLPNLFKPLKEHGVNVTAVVYAPAFGFVYNNIDEMARAYYKAPNSVCIEQGVDWREGICRDNKVDGVLVHYNRSCKPWSGYMAEMQRRFTEDLGVPCAGFDGDQADPRNFNAAQYETRVQGLVEAMEANKQAKEAK
chain 2: MSINALLDEFKVKAATPKQQLAEYKAQGKKVIGVLPYYAPEELVYAAGMVPMGIWGSNNKTISRAKEYCATFYCTIAQLALEMLLDGTMDQLDGIITPTICDTLRPMSQNFRVAMGDKMAVIFLAQPQNRFEDFGLQFSVDQYTNVKKELEKVAGKEITNEAIQDAIKVYNKSRAARRKFVELASAHCDVITPTKRSAVLKSFFFMEKPEYIEKLEELNAELEKLPVCDWQGTKVVTSGIICDNPKLLEIFEENNIAIAADDVGHESRSFRVDAPEDEADALMALAKQFANMDYDVLLYDPKSTENRRGEFIANMVKESGAQGLVLFMQQFCDPEEMEYPYLKKALNNAGIPHIKLGIDQQMRDFGQASTAIQAFADVLEMQK
Molecule B1 has a Km [2] of 52 µM, a kcat [2] of 83 s⁻¹ and a Km [3] of 100 µM. It also gave a kcat [3] of 17.4 s⁻¹, a Km [4] of 570 µM and a kcat [4] of 1.9 s⁻¹.

B2: 2-Hydroxyglutaryl-CoA dehydratase + activator: dehydratase (hgdAB) from C. symbiosum with activator (hgdC) from A. fermentans, expressed in E. coli BL21 (protein, listed as Clostridium symbiosum)
chain 1: B1 chain 1
chain 2: B1 chain 2
chain 3: MSIYTLGIDVGSTASKCIILKDGKEIVAKSLVAVGTGTSGPARSISEVLENAHMKKEDMAFTLATGYGRNSLEGIADKQMSELSCHAMGASFIWPNVHTVIDIGGQDVKVIHVENGTMTNFQMNDKCAAGTGRFLDVMANILEVKVSDLAELGAKSTKRVAISSTCTVFAESEVISQLSKGTDKIDIIAGIHRSVASRVIGLANRVGIVKDVVMTGGVAQNYGVRGALEEGLGVEIKTSPLAQYNGALGAALYAYKKAAK
modifications: Acidaminococcus fermentans
For B2, the “Activity, U” value [5] was 0.23 U and the “Specific activity, U/mg” value [5] was 0.80 U/mg.

B3: 2-Hydroxyglutarate dehydrogenase: enzyme from A. fermentans (hgdH) expressed in recombinant E. coli BL21 (protein)
chain: MKVLCYGVRDVELPIFEACNKEFGYDIKCVPDYLNTKETAEMAAGFDAVILRGNCFANKQNLDIYKKLGVKYILTRTAGTDHIDKEYAKELGFPMAFVPRYSPNAIAELAVTQAMMLLRHTAYTTSRTAKKNFKVDAFMFSKEVRNCTVGVVGLGRIGRVAAQIFHGMGATVIGEDVFEIKGIEDYCTQVSLDEVLEKSDIITIHAPYIKENGAVVTRDFLKKMKDGAILVNCARGQLVDTEAVIEAVESGKLGGYGCDVLDGEASVFGKDLEGQKLENPLFEKLVDLYPRVLITPHLGSYTDEAVKNMVEVSYQNLKDLAETGDCPNKIK
modifications: Acidaminococcus fermentans
notes: enzyme from A. fermentans (hgdH) expressed in recombinant E. coli BL21
In the case of B3, the “Activity, U” value [6] is reported as 730 U and the “Specific activity, U/mg” value [6] is reported as 250 U/mg.

B4: Glutaconate CoA-transferase: enzyme from A. fermentans (gctAB) expressed in recombinant E. coli BL21 (protein)
chain 1: LSKVMTLKDAIAKYVHSGDHIALGGFTTDRKPYAAVFEILRQGITDLTGLGGAAGGDWDMLIGNGRVKAYINCYTANSGVTNVSRRFRKWFEAGKLTMEDYSQDVIYMMWHAAALGLPFLPVTLMQGSGLTDEWGISKEVRKTLDKVPDDKFKYIDNPFKPGEKVVAVPVPQVDVAIIHAQQASPDGTVRIWGGKFQDVDIAEAAKYTIVTCEEIISDEEIRRDPTKNDIPGMCVDAVVLAPYGAHPSQCYGLYDYDNPFLKVYDKVSKTQEDFDAFCKEWVFDLKDHDEYLNKLGATRLINLKVVPGLGYHIDMTKEDK
chain 2: MADYTNYTNKEMQAVTIAKQIKNGQVVTVGTGLPLIGASVAKRVYAPDCHIIVESGLMDCSPVEVPRSVGDLRFMAHCGCIWPNVRFVGFEINEYLHKANRLIAFIGGAQIDPYGNVNSTSIGDYHHPKTRFTGSGGANGIATYSNTIIMMQHEKRRFMNKIDYVTSPGWIDGPGGRERLGLPGDVGPQLVVTDKGILKFDEKTKRMYLAAYYPTSSPEDVLENTGFDLDVSKAVELEAPDPAVIKLIREEIDPGQAFIQVPTEAK
modifications: Acidaminococcus fermentans
notes: enzyme from A. fermentans (gctAB) expressed in recombinant E. coli BL21
For B4, the “Activity, U” value [7] was 0.71 U and the “Specific activity, U/mg” value [7] was 0.25 U/mg.

From patent US8778645B2, “Method for the production of glutaconate” (BASF SE, priority 2009, dated 2014)
